Test: soluble on expression in E. coli; label from the status in PepcDB or PDB records

Sequence	soluble on expression in E. coli
MSLSEELSFSAMVKAELALLTPELPCCRRMELAGLVRALGRLELSGRGRFALTLSTDSAPVSRKVIRLLKSVSPVRYEVMVMRRRKLRKNLVYRVHIPHQPGVAELLQLAGFIDEAGRPADWVEPPELANDHCRRAFLRGTFLGSGWVAGPEKQHHLEITTTATEAADALGQMLFRGGIAARMVARRESLVLYIKEADQIIRFLGLVGAHQALLRYEEVRVIKEMKNQVNRQVNAEVANMTKQADAAARQVEAIKRLEAAGALERVSPPLRELAGLRLAYPDASLKELGELCRPPVSKSGAAHRMRQLMALAESLEEGHHHHHH	soluble
MSDNAQLTGLCDRFRGFYPVVIDVETAGFNAKTDALLEIAAITLKMDEQGWLMPDTTLHFHVEPFVGANLQPEALAFNGIDPNDPDRGAVSEYEALHEIFKVVRKGIKASGCNRAIMVAHNANFDHSFMMAAAERASLKRNPFHPFATFDTAALAGLALGQTVLSKACQTAGMDFDSTQAHSALYDTERTAVLFCEIVNRWKRLGGWPLPAAEEV	not soluble
MGSDKIHHHHHHMSSCGKNENPQEMNRRKFLKVFGGGAVASSAALYGCAPKNEPGAAVALGEVPTDKMTYRQHPTNGDKVSILGYGCMRWPLKQGSDGKDQIDQEAVNRLVDYAIEHGVNYFDTSPVYVQGMSEKATGIALARHPRNSYYLATKLSNFQNYTRENSLAMYRQSFRDLQTDYLDYYLLHSIGGGNGIELFNDRYINNGMLDFLVKEREAGRIRNLGWSFHGDVKVFDYVLDMGVKWDFVQIQLNYLDWKHASGRNVNADYLYGELEKRGIPAVIMEPLLGGRLSNVPDHIVARLKQQRPENSVASWAFRFAGSPDGVLTVLSGMTYMEHLQDNIRTYSPLIPVTDEEKDFLEETAQLMMKYPTIPCNDCKYCMPCPYALDIPGILLHYNKCVNEGNVPKSAQDENYAKARRAFLVGYDRSVPKLRQANHCTGCEQCNPHCPQGIDIPKEMQRIDKFVEELKVNG	not soluble
PSLSKEAALVHEALVARGLETPLRPPVHEMDNETRKSLIAGHMTEIMQLLNLDLADDSLMETPHRIAKMYVDEIFSGLDYANFPKITLIENKMKVDEMVTVRDITLTSTSEHHFVTIDGKATVAYIPKDSVIGLSKINRIVQFFAQRPQVQERLTQQILIALQTLLGTNNVAVSIDAVHYCVKARGIRDATSATTTTSLGGLFKSSQNTRHEFLRAVRHHN	soluble
MAGDPMLLTGTLKREAGNKMGQKPKIAIFGGGTGLSVLLRGLKHKPVDITAIVTVADDGGSSGRLRNELKIPPPGDIRNVLAALSDVEPLVEDLFQHRFNKGNDLTGHSLGNLILAAMTNITGDFFHAVTEMSKVLNVRGKVLPAANASVVLHAEMEDGRVVSGESTIPEYGQRIKRVFLTPEQIDPLPETIDVIREADLIIIGPGSLYTSILPNLLVPKIGEEVIKAPAKKVYICNVMTQPGETLHYTAADHVKALNQHMGCGFIDTILVNSEDIPDEIKRKYEMESARPVDFDIEELKAMGLEVIRDQIVTYKNDVIRHDTHKVASLLVDLLKELEHHHHHH	soluble
GSPQLRQVGQIIRVPARMAATLILEPAGRCCWDEPVRIAVRGLAPEQPVTLRASLRDEKGALFQAHARYRADTLGELDLERAPALGGSFAGLEPMGLLWALEPEKPLVRLVKRDVRTPLAVELEVLDGHDPDPGRLLCQTRHERYFLPPGVRREPVRVGRVRGTLFLPPEPGPFPGIVDMFGTGGGLLEYRASLLAGKGFAVMALAYYNYEDLPKTMETLHLEYFEEAMNYLLSHPEVKGPGVGLLGISKGGELCLSMASFLKGITAAVVINGSVANVGGTLRYKGETLPPVGVNRNRIKVTKDGYADIVDVLNSPLEGPDQKSFIPVERAESTFLFLVGQDDHNWKSEFYANEACKRLQAHGRRKPQIICYPETGHYIEPPYFPLCRASLHALVGSPIIWGGEPRAHAMAQVDAWKQLQTFFHKHLGGHEGTIPSKVLEHHHHHH	soluble
MGSDKIHHHHHHMGKPVSSPYYIGCSGWHYAHWVGAFYPPGLPSTGRLAFYAGRFHTVEINSSFYRLPSEKCLRAWHDGTPAGFLFALKASRFITHMKKLKDSEASLARLLGRAENLGEKLGPVLFQLPPHWRRNAKRLEGFLRVLPSGHRYAFEIRDPSWHHPEIYALLNAYNAAFCIFDIAGFQSPIQLTTDFAYIRLHGPSFAAYAGRYTTEALRAWAARIRTWGLRTVYVYFDNDQAAYATHNALELMGILGL	not soluble
MSELNALLKDINGSLTATSESLERLSGIYSNSATDEIPESNQLHEHLFYDAKKPAEKVSLLSLKNGSMLGYINSLLMLIGNRLDDECKDPSAMDARERSIQHRVVLERGVKPLEKKLAYQLDKLTRAYVKMEKEYKDAEKRALEKSTLVNHSGNDDSEDDESSEDEIAYRPNTSGIINTNKKSSAYRVEETAKQENGEENDDNETGVYKPPKITAVLPPQQTHFEDRFDAREHKDRSNKSRMQAMEEYIRESSDQPDWSASIGADIVNHGRGGIKSLRDTEKERRVTSFEEDNFTRLNITNKAEKRKQKQRERNARMNVIGGEDFGIFSSKRKLEDSTSRRGAKKTRSAWDRAQRRL	soluble
MQDEFYMARALKLAQRGRFTTHPNPNVGCVIVNNGDIVGEGYHHRAGEPHAEVHALRMAGAKAKGATAYVTLEPCSHHGRTPPCCDALIAAGVARVVAAMQDPNPQVAGRGLYRLQQAGIAVSHGLMMSEAEALNKGFLKRMRTGFPYLQLKLGASVDGRTAMASGESQWITSPQARRDVQRLRAQSHAILTSSATVLADDPALTVRWAELDASTQASYPQENLRQPVRIVIDSQNRVTPAHRIVQQPGETWIARTQEDSRAWPDAVRTISVPAHNGHLDLVVLMMQLGRQQINSIWVEAGPGLAGALLQAGLVDELIVYVAPKLLGTQARGLCELPGLEKLADAPQFTFSEIRHVGPDVCLHMVSA	soluble
GNGRFLTLKPLPDSIIQESLEIQQGVNPFFIGRSEDCNCKIEDNRLSRVHCFIFKKRHAVGKSMYESPAQGLDDIWYCHTGTNVSYLNNNRMIQGTKFLLQDGDEIKIIWDKNNKFVIGFKVEINDTTGLFNEGLGMLQEQRVVLKQTAEEKDLVKKL	soluble
MGLMKKFRDYFLEEDYEDYDEEYEAPQPEEEAPPKTAGKANVVSLQSVQKSAKVVLAEPRVYAEAQEIADHLKSRRAVIVNLQRIQHEQAKRIVDFLSGTVYAIGGDIQQVGTKIFLCTPENVDVSGSISLDGEDDRPMKRW	not soluble
MKLSVLDQSPIAYGSNAKEALRQTTELAKVTEALGYHRFWVSEHHDASTLAGSSPEVLIAHLAAHTKKIRLGSGGVMLPHYSAYKVAENFKLLEALHPGRIDVGLGRAPGGMPIAKMALQEGKEQNIHKYPLQVKDVIGYLQDDLPTDHRFHGLKATPLIDTVPDVWLLGSSGGSANVAAENGTGFAFAHFINGEGGVQAVESYRETFQPSALFDRPQTSVAIFVICADTDEQADQIASSLDLSLIMLENGQLSKGTPSIESALSYPYSPFERARIRENRKRMIVGSPKAVRQQLVELARAYETEEVIVVTITHRFEDRIRSYELLGEEWNVN	not soluble
MEDQLTIFIISDSLGETAKAIAKACLSQFPGHDDWHFQRFSYINSQERLEQVFEEASQKTVFMMFSLVDVALASYAQKRCESEHYAYVDLLTNVIQGISRISGIDPLGEPGILRRLDNDYFKRVESIEFAVKYDDGRDPRGILQADLVIIGISRTSKTPLSMFLADKNIKVINIPLVPEVPVPKELRMIDSRRIIGLTNSVDHLNQVRKVRLKSLGLSSTANYASLERILEETRYAEEVMKNLGCPIINVSDKAIEETATIILEILKTNGQVAKNLLEHHHHHH	not soluble
MSLKLDSKGPVLFKQKRVGINKTHFHILKFRTMRIDTPKDTPTHLLKNPDQYITKMGKFLRKTSLDELPQIWNIFVGHMSIIGPRPALWNQYDLIVERDKYGANDVPPGLTGWAQINGRDELPIEVKAKLDGEYVQNIGFWMDVKCFVGTIWSVLRSDGVVEGGTGSAKKEIASTKRREGHHHHHH	soluble
MLIRTEAPADILTIDRLLKHAFPTDAEANLVMRLRENGKLTLSLVACTDEGEVIGHALFSPVTLNGEDLSWQGLAPLAVHEDYRRQGIGAELIKEGFESLRDFGYPVCVVLGEPNYYARQGFNAGEEMGFECAWEVPEGAFRVAELVEGQCTGRSGRIDYAPEFSEL	not soluble

Source: the DeepSol protein solubility set
